The supplement of paper PMC7877785
± gives the uncertainty stated by the source.

Assay: self-splicing fitness, log relative to wild type (ln ratio); higher = more splicing; Tetrahymena group I intron in knt gene, E. coli kanamycin selection, DiMSum; sequences stand for … in CUCUCU…GGAGGGAAAAGUUAUCAGGCAUGCACCUGGUAGCUAGUCUUUAAACCAAUAGAUUGCAUCGGUUUAAAAGGCAAGACCGUCAAAUUGCGGGAAAGGGGUCAACAGCCGUUCAGUACCAAGUCUCAGGGGAAACUUUGAGAUGGCCUUGCAAAGGGUAUGGUAAUAAGCUGACGGACAUGGUCCUAACCACGCAGCCAAGUCCUAAGUCAACAGAUCUUCUGUUGAUAUGGAUGCAGUUCACAGACUAAAUGUCGGUCGGGGAAGAUGUAUUCUUCUCAUAAGAUAUAGUCGGACCUCUCCUUAAUGGGAGCUAGCGGAUGAAGUGAUGCAACACUGGAGCCGCUGGGAACUAAUUUGUAUGCGAAAGUAUAUUGAUUAGUUUUGGAGUACUCGUGGUCG
In short: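 Pooled colonies went to amplicon sequencing on an Illumina HiSeq 2500 after six replicate transformations. The plates were LB agar with 100 μg/mL carbenicillin, 50 μM IPTG and 0.2% rhamnose, with or without 25 μg/mL kanamycin, incubated overnight at 37°C or 30°C. The E. coli BL21(DE3) library had all eight P1ex-region intron nucleotides randomised, the intron placed in the knt kanamycin-resistance gene on pET-22b(+). DiMSum fitness is the error-weighted combination of replicate fold changes, kanamycin against none, normalised to wild type.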

Sequence	self-splicing fitness (ln) (30 °C)	self-splicing fitness (ln) (37 °C)
ACUAAGCAAUAUUACGCCCG	-0.735 ± 0.14	0.678 ± 0.19
ACUAAGCAAUAUUACGCCGG	-1.03 ± 0.11	-0.877 ± 0.18
ACUAAGCAAUAUUACGCGGA	-1.96 ± 0.094	-0.956 ± 0.083
ACUAAGCAAUAUUACGCUCA	-0.894 ± 0.12	-0.989 ± 0.14
ACUAAGCAAUAUUACGCUCC	-1.24 ± 0.096	-0.322 ± 0.13
ACUAAGCAAUAUUACGGAGU	-3.72 ± 0.23	-3.11 ± 0.21
ACUAAGCAAUAUUACGGCCA	-0.942 ± 0.13	0.00289 ± 0.13
ACUAAGCAAUAUUACGGUUG	-3.25 ± 0.2	-2.5 ± 0.21
ACUAAGCAAUAUUACGUACU	0.135 ± 0.084	0.635 ± 0.12
ACUAAGCAAUAUUACGUAUC	-2.91 ± 0.15	-2.15 ± 0.19
ACUAAGCAAUAUUACGUCAU	-3.64 ± 0.16	-2.28 ± 0.15
ACUAAGCAAUAUUACGUCUA	-1.45 ± 0.13	-0.981 ± 0.12
ACUAAGCAAUAUUACGUUUA	-3.27 ± 0.17	-2.48 ± 0.14
ACUAAGCAAUAUUACGUUUG	-3.62 ± 0.18	-2.22 ± 0.17
ACUCAGCAAUAUUACGAAUU	-0.96 ± 0.089	-0.208 ± 0.085
ACUCAGCAAUAUUACGACAC	-1.44 ± 0.12	-0.127 ± 0.14
ACUCAGCAAUAUUACGAGAU	-2.56 ± 0.11	-1.81 ± 0.11
ACUCAGCAAUAUUACGAGGG	-1.85 ± 0.08	-1.41 ± 0.1
ACUCAGCAAUAUUACGAUAU	-1.1 ± 0.081	-0.759 ± 0.11
ACUCAGCAAUAUUACGCCUU	-0.619 ± 0.053	0.491 ± 0.067
ACUCAGCAAUAUUACGCGAA	-1.48 ± 0.061	-0.686 ± 0.069
ACUCAGCAAUAUUACGCGCG	-1.21 ± 0.12	-0.47 ± 0.11
ACUCAGCAAUAUUACGCGUA	-0.747 ± 0.11	-0.395 ± 0.11
ACUCAGCAAUAUUACGCGUC	-3.42 ± 0.19	-2.06 ± 0.25

Sequence	self-splicing fitness (ln) (30 °C)	self-splicing fitness (ln) (37 °C)
ACUCAGCAAUAUUACGCUAC	-3.42 ± 0.27	-2.63 ± 0.23
ACUCAGCAAUAUUACGCUAU	-1.9 ± 0.061	-0.569 ± 0.07
ACUCAGCAAUAUUACGCUCC	-0.601 ± 0.12	-0.848 ± 0.16
ACUCAGCAAUAUUACGGAGA	-0.941 ± 0.12	-0.997 ± 0.13
ACUCAGCAAUAUUACGGAUU	-0.597 ± 0.055	0.0271 ± 0.076
ACUCAGCAAUAUUACGGGAC	-2.72 ± 0.17	-1.6 ± 0.23
ACUCAGCAAUAUUACGGGAU	-1.32 ± 0.056	-0.522 ± 0.076
ACUCAGCAAUAUUACGGGCC	-1.32 ± 0.092	-1.13 ± 0.11
ACUCAGCAAUAUUACGGGUA	-1.57 ± 0.099	-0.922 ± 0.083
ACUCAGCAAUAUUACGGUUC	-2.68 ± 0.14	-2.33 ± 0.14
ACUCAGCAAUAUUACGGUUU	-0.62 ± 0.048	-0.291 ± 0.057
ACUCAGCAAUAUUACGUAAG	-0.973 ± 0.052	-0.421 ± 0.078
ACUCAGCAAUAUUACGUAAU	-0.934 ± 0.057	-0.31 ± 0.076
ACUCAGCAAUAUUACGUACC	-1.39 ± 0.09	0.482 ± 0.13
ACUCAGCAAUAUUACGUAUG	-3.11 ± 0.24	-1.35 ± 0.16
ACUCAGCAAUAUUACGUCCC	-0.969 ± 0.13	-0.71 ± 0.16
ACUCAGCAAUAUUACGUCCG	-2.16 ± 0.14	-1.21 ± 0.15
ACUCAGCAAUAUUACGUGAU	-1 ± 0.064	-0.627 ± 0.078
ACUCAGCAAUAUUACGUGCG	-0.485 ± 0.063	-0.526 ± 0.078
ACUCAGCAAUAUUACGUUAG	-2.98 ± 0.13	-0.675 ± 0.11
ACUGAGCAAUAUUACGAAGU	-3.93 ± 0.3	-3.03 ± 0.31
ACUGAGCAAUAUUACGAGGA	-2.63 ± 0.23	-1.83 ± 0.17
ACUGAGCAAUAUUACGAUCA	-2.89 ± 0.43	-2.9 ± 0.34
ACUGAGCAAUAUUACGAUCG	-1.65 ± 0.15	-1.99 ± 0.21

Sequence	self-splicing fitness (ln) (30 °C)	self-splicing fitness (ln) (37 °C)
ACUGAGCAAUAUUACGAUCU	-1.28 ± 0.12	-0.653 ± 0.1
ACUGAGCAAUAUUACGAUUG	–	-3.25 ± 0.37
ACUGAGCAAUAUUACGCAAU	-2.79 ± 0.28	-2.03 ± 0.27
ACUGAGCAAUAUUACGCAUC	-2.22 ± 0.24	-2.08 ± 0.24
ACUGAGCAAUAUUACGCCCG	-2.15 ± 0.25	-0.509 ± 0.22
ACUGAGCAAUAUUACGCGAC	-2.51 ± 0.43	-1.46 ± 0.29
ACUGAGCAAUAUUACGCUGU	-3.42 ± 0.28	-1.7 ± 0.25
ACUGAGCAAUAUUACGGACG	-2.2 ± 0.13	-1.9 ± 0.2
ACUGAGCAAUAUUACGGCGU	-1.07 ± 0.079	0.0319 ± 0.097
ACUGAGCAAUAUUACGGGCA	-2.07 ± 0.14	-1.08 ± 0.14
ACUGAGCAAUAUUACGUAGU	-3.48 ± 0.19	-2.41 ± 0.25
ACUGAGCAAUAUUACGUCCC	-3.06 ± 0.39	–
ACUGAGCAAUAUUACGUCGG	-2.82 ± 0.16	-2.47 ± 0.21
ACUGAGCAAUAUUACGUGAU	-3.6 ± 0.14	-1.76 ± 0.097
ACUUAGCAAUAUUACGAAAG	-2.69 ± 0.19	-0.697 ± 0.17
ACUUAGCAAUAUUACGAAGU	-3.91 ± 0.22	-1.61 ± 0.19
ACUUAGCAAUAUUACGAAUG	-2.24 ± 0.11	-1.13 ± 0.12
ACUUAGCAAUAUUACGACGA	-0.777 ± 0.089	-0.322 ± 0.088
ACUUAGCAAUAUUACGAGAA	-2.06 ± 0.29	-2.07 ± 0.23
ACUUAGCAAUAUUACGAGGC	-3.25 ± 0.5	–
ACUUAGCAAUAUUACGAUCA	-1.45 ± 0.14	-0.47 ± 0.13
ACUUAGCAAUAUUACGCACG	-1.55 ± 0.1	-0.683 ± 0.13
ACUUAGCAAUAUUACGCAUC	-2.69 ± 0.19	-1.64 ± 0.2
ACUUAGCAAUAUUACGCCAG	-2.16 ± 0.15	-0.941 ± 0.17

Sequence	self-splicing fitness (ln) (30 °C)	self-splicing fitness (ln) (37 °C)
ACUUAGCAAUAUUACGCGGU	-3.26 ± 0.41	-1.84 ± 0.26
ACUUAGCAAUAUUACGCUGC	-3.82 ± 0.32	-2.36 ± 0.22
ACUUAGCAAUAUUACGCUGU	-3.85 ± 0.2	-2.19 ± 0.17
ACUUAGCAAUAUUACGGAUG	-1.73 ± 0.13	-1.53 ± 0.2
ACUUAGCAAUAUUACGGGCA	-1.04 ± 0.091	0.0835 ± 0.096
ACUUAGCAAUAUUACGGUAU	-3.18 ± 0.12	-2.5 ± 0.13
ACUUAGCAAUAUUACGGUGU	-2.79 ± 0.11	-1.64 ± 0.097
ACUUAGCAAUAUUACGUACU	-0.497 ± 0.094	-0.384 ± 0.1
ACUUAGCAAUAUUACGUAGG	-1.25 ± 0.079	-1.12 ± 0.11
ACUUAGCAAUAUUACGUAUC	-3.56 ± 0.22	-2.37 ± 0.24
ACUUAGCAAUAUUACGUCCU	-0.527 ± 0.085	-0.132 ± 0.13
ACUUAGCAAUAUUACGUUAG	-2.09 ± 0.09	-1.5 ± 0.12
AGAAAGCAAUAUUACGAAUA	-2.51 ± 0.17	-0.949 ± 0.14
AGAAAGCAAUAUUACGACGC	-0.72 ± 0.11	-0.219 ± 0.14
AGAAAGCAAUAUUACGAGAC	-2.65 ± 0.3	-2.13 ± 0.47
AGAAAGCAAUAUUACGAUAC	-1.78 ± 0.14	-1.54 ± 0.19
AGAAAGCAAUAUUACGAUCC	-0.604 ± 0.07	0.0529 ± 0.11
AGAAAGCAAUAUUACGAUGU	-0.998 ± 0.063	-0.229 ± 0.083
AGAAAGCAAUAUUACGCAAU	-2.18 ± 0.072	-0.965 ± 0.075
AGAAAGCAAUAUUACGCCAC	–	-2.07 ± 0.41
AGAAAGCAAUAUUACGCUGA	-3.08 ± 0.21	-0.267 ± 0.15
AGAAAGCAAUAUUACGGCGU	0.239 ± 0.073	0.133 ± 0.091
AGAAAGCAAUAUUACGGCUC	-1.28 ± 0.091	-0.338 ± 0.12
AGAAAGCAAUAUUACGGGAA	-2.72 ± 0.13	-1.73 ± 0.12
